Reference: patent US6319685A (Unigene Laboratories, Inc., priority 1987, dated 2001)

Tests used:
[1] = specific alpha-amidating activity, conversion of Dansyl-D-Tyr-Val-Gly to Dansyl-D-Tyr-Val-CONH2; assay type: biochemical; settings: CA-77 media
Method: These and other objects will become apparent from a thorough reading of the present disclosure. […] All specific activity units set forth herein are based upon the conversion of Dansyl-D-Try-Val-Gly-COOH to Dansyl-D-Tyr-Val-CONH2. One mU is defined as the amount of activity needed to convert one nanomole (nmole) of Dansyl-D-Tyr-Val-Gly-COOH to one nmole of Dansyl-D-Tyr-Val-CONH2 per minute at 37° C. and pH 7.0 in the presence of ascorbate ions at a concentration of 3 mM (based on total reaction mixture including enzyme, substrate, co-factors, etc.), molecular oxygen in a molar excess over substrate and a concentration of cupric ions effective to maximize activity (usually about 2 μM depending on the state of purity of the enzyme).
Each purification step can be monitored for both protein content and the level of alpha-amidation activity. This information is used to calculate the specific activity of the enzyme which serves as an indicator of the relative purity of the enzyme.
Sephacryl S-300 (Pharmacia) was equilibrated in 50 mM Tris HCl pH 7.0 and poured into a K 50/100 column (Pharmacia) according to the manufacturer's instructions. The bed volume of the column was approximately 1.3 liters. The Sample was loaded onto the column in a volume representing approximately 3 percent of the bed volume of the column. Proteins were eluted from the column in 50 mM Tris HCl pH 7.0 at a flow rate of approximately 2 ml per minute.
The reaction mixture for the conversion of the monodansyl substrate contained:
The samples were prepared in duplicate and incubated at 37° C. for 10, 20 and 30 minutes time periods. The enzymatic reaction was halted by the addition of 10 ul 500 mM EDTA.

[2] = nonspecific proteolytic activity of enzyme preparation; assay type: biochemical; settings: CA-77 media, after DEAE and Sephacryl 300-SF

B1: alpha-amidating enzyme (CA-77): alpha-amidating enzyme derived from CA-77 cell tissue culture media (protein, UniProt P14925 36-976, looked up)
Peptidylglycine …: FKETTRSFSNECLGTIGPVTPLDASDFALDIRMPGVTPKESDTYFCMSMRLPVDEEAFVIDFKPRASMDTVHHMLLFGCNMPSSTGSYWFCDEGTCTDKANILYAWARNAPPTRLPKGVGFRVGGETGSKYFVLQVHYGDISAFRDNHKDCSGVSVHLTRVPQPLIAGMYLMMSVDTVIPPGEKVVNADISCQYKMYPMHVFAYRVHTHHLGKVVSGYRVRNGQWTLIGRQNPQLPQAFYPVEHPVDVTFGDILAARCVFTGEGRTEATHIGGTSSDEMCNLYIMYYMEAKYALSFMTCTKNVAPDMFRTIPAEANIPIPVKPDMVMMHGHHKEAENKEKSALMQQPKQGEEEVLEQGDFYSLLSKLLGEREDVHVHKYNPTEKTESGSDLVAEIANVVQKKDLGRSDAREGAEHEEWGNAILVRDRIHRFHQLESTLRPAESRAFSFQQPGEGPWEPEPSGDFHVEEELDWPGVYLLPGQVSGVALDSKNNLVIFHRGDHVWDGNSFDSKFVYQQRGLGPIEEDTILVIDPNNAEILQSSGKNLFYLPHGLSIDTDGNYWVTDVALHQVFKLDPHSKEGPLLILGRSMQPGSDQNHFCQPTDVAVEPSTGAVFVSDGYCNSRIVQFSPSGKFVTQWGEESSGSSPRPGQFSVPHSLALVPHLDQLCVADRENGRIQCFKTDTKEFVREIKHASFGRNVFAISYIPGFLFAVNGKPYFGDQEPVQGFVMNFSSGEIIDVFKPVRKHFDMPHDIVASEDGTVYIGDAHTNTVWKFTLTEKMEHRSVKKAGIEVQEIKEAEAVVEPKVENKPTSSELQKMQEKQKLSTEPGSGVSVVLITTLLVIPVLVLLAIVMFIRWKKSRAFGDHDRKLESSSGRVLGRFRGKGSGGLNLGNFFASRKGYSRKGFDRVSTEGSDQEKDEDDGTESEEEYSAPLPKPAPSS
- activity ([1]; after DEAE and Sephacryl 300-SF): at least 50 mU/mg protein
- specific activity ([1]; fractions from DEAE weak anion exchange cartridge): 10-15 mU/mg
- nonspecific proteolytic activity [2]: free of nonspecific proteolytic activity
